These results are taken from patent publication US20260167738A1 (published 2026).

Experiment [1] addresses full-length human CD33 (CD33^FL) (UniProt P20138 18-364). Kind of experiment: SPR (Biacore).
Experiment [2] addresses CD33ΔE2. Put plainly: SPR (Biacore).

Chain of full-length human CD33 (CD33^FL) (P20138 18-364): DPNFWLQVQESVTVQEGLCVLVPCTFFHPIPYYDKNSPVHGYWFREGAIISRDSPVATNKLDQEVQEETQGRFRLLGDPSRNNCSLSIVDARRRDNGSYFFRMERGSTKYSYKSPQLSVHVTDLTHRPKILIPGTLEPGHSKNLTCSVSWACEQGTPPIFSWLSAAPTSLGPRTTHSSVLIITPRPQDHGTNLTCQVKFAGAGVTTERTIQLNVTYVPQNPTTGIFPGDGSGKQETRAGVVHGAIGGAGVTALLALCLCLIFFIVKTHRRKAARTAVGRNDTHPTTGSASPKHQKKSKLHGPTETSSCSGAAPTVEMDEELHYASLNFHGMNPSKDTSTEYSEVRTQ

B1: 2D3 antibody (antibody, V domains shown)
VH: EVQLLESGGGLVQPGGSLSLSCAASGFTFSIYAMSWVRQAPGKGLEWVSAISDSGGTTYYADSVKGRFTISRDNSKNMLYLEMNSLRAEDTAIYYCAKRTRYFNGMDVWGQGTTVTVSS
VL: EIVMTQSPATLSLSPGERATLSCRASQSGSSSFLSWYQQKPGQAPRLLIYGASTRATGIPARFSGSGSGTDFTLTISSLQPEDFAVYYCQQDYNLPFTFGPGTKVDIK
In experiment [1], B1 had a Kd of 4.89 nM.

B2: 1H10 (antibody, V domains shown)
VH: QVQLVQSGAEVKKPGASVKVSCKGSGYIFTSYDMHWVRQAPGQGLEWMGIIDPSGGSTSYAQKFQGRVTMTRDTSMSTVYMELSSLRSEDTAVYYCTRDYSWSYFDYWGQGTLVTVSS
VL: AIQMTQSPSSLSASVGDRVTITCRASQGIRIYLGWYQQKPGKAPKLLIYATSSLQSGVPSRFSGSGSGTDFTLTISSLQPEDFATYYCLQDYNYPWTFGQGTKVEIK
Regarding B2, in experiment [2], binding was characterised by a dissociation constant (Kd) of 0.136 nM.

B3: 1H10 antibody (antibody, V domains shown)
VH: QVQLVQSGAEVKKPGASVKVSCKGSGYIFTSYDMHWVRQAPGQGLEWMGIIDPSGGSTSYAQKFQGRVTMTRDTSMSTVYMELSSLRSEDTAVYYCTRDYSWSYFDYWGQGTLVTVSS
VL: AIQMTQSPSSLSASVGDRVTITCRASQGIRIYLGWYQQKPGKAPKLLIYATSSLQSGVPSRFSGSGSGTDFTLTISSLQPEDFATYYCLQDYNYPWTFGQGTKVEIK
In experiment [1], B3 gave a Kd of 3.71 nM.
